Article PMC6205948, “Phage-Borne Depolymerases Decrease Klebsiella pneumoniae Resistance to Innate Defense Mechanisms” (Frontiers in Microbiology, 2018)

B1: KP32gp38 (enzyme, Klebsiella phage KP32, UniProt D1L2X1 1-576, looked up)
chain: MLDNFNQPKGSTIGVLKDGRTIQEAFDSLPRLESFSGSTATDKLRAAITLGVSEVAIGPVEGNGGRPYEFGDVVIPYPLRIVGCGSQGINVTKGTVLKRSAGASFMFHFTGEGQAQRPMGGGLFNINLNGDTATALGDIIKVTQWSYFKANNCAFQNMAGWGIRLKDVMESNISGNLFRRLGGPSGGGILFDDVRSAVTDNVNNLHIEDNTFALMSGPWIGSTANSNPDLIWIVRNKFEFDGTPAAPNTVDSYVLDFQQLSRAFIQDNGFTHFTTERNRYVGVLRVGATAVGTIKFEDNLLFACESAGLIAGGIVVSRGNVNNQGSATTAIKQFTNTSSKLCKLERVINVQSNGNVSVGQQILPDGYINMAELPGNTRLPSEYDADGETTSVLRVPANTQVRQWSVPKMYKDGLTVTKVTVRAKGAAAGAILSLQSGSTVLSTKSIDAGVWKNYVFYVKANQLQETLQLRNTGTADVLADGMVFGKVDYIDWDFAIAPGTLAAGAKYTTPNQSYLDVAGMRVQAVSIPMFDGPTTGLQVWVEATSANGSFVVVMKNDTGSELVTTVTRCRVRAFVS
notes: open reading frame cloned into pEXP5-CT/TOPO; runs at about 62 kDa on SDS-PAGE; The vector pEXP5-CT/TOPO adds a C-terminal His6 tag (surmised from the vector's name); also called hypothetical protein; K21 depolymerase

Legend:
[1] = target: KP32gp37 (Klebsiella phage KP32) (UniProt D1L2X0); assay: SEC-MALS; purified protein in solution, native conditions; SEC coupled to a miniDAWN TREOS MALS detector and Optilab rEX; proteins dialyzed against PBS pH 7.4
[2] = target: the molecule itself; assay: as above

Row | Molecule | stoichiometry N [1] | stoichiometry N [2]
1 | KP32gp37 (from UniProt D1L2X0 1-869) (enzyme) | 3 | 
2 | B1 |  | 3
